The results in this text go back to PMC4644428.

One series addresses CRP (wild type) (UniProt P0ACJ8 1-210). Put plainly: fluorescence polarization. For orientation: In fluorescence polarisation assays a small probe gives low polarisation when free and higher when bound to something large.
A further series has as its target CRPG (UniProt P0ACJ8 1-210, R124N;T128C;S129T). Nature of the series: fluorescence polarization.

B1: 26-mer CRP consensus (dsDNA)
DNA 1: GTAAATGTGATGTACATCACATGGAT
DNA 2: ATCCATGTGATGTACATCACATTTAC
B1: the binding result with CRP (wild type) and in the series with CRPG was “binds” each time.
